Results published in the supplement of paper PMC10567573.
± gives the standard deviation.

Experiment: protein stability index of a GFP-peptide fusion (GPS, HEK-293T) (PSI 1-6); higher = more stable
[1] = treatment: DMSO, c terminus: a fixed tail appended
[2] = treatment: MLN4924 1 uM, 8 h, c terminus: a fixed tail appended
[3] = treatment: DMSO, c terminus: native
[4] = treatment: MLN4924 1 uM, 8 h, c terminus: native
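Also: 24-mer peptide tiles fused after GFP, lentivirally expressed, FACS-sorted into six equal bins by GFP/DsRed ratio, decoded by Illumina sequencing, PSI is the read-weighted mean bin number.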

GSLDNAHHVPGGGNVKIDSQKLNF [MAP2]
protein stability index [1]: 4.27 ± 0.18
protein stability index [2]: 4.43 ± 0.32

SPGGTLMDLSERQEVSSVRSLSST [DLC1]
protein stability index [1]: 4.61 ± 0.24
protein stability index [2]: 4.85 ± 0.2

DHPIVETLRQKAEADKNDKAVKDL [HSP90AB1]
protein stability index [1]: 5.58 ± 0.29
protein stability index [2]: 5.64 ± 0.14

AEDTEKKDEPSKYNQQQALIDQRY [CEP70]
protein stability index [1]: 5.2 ± 0.31
protein stability index [2]: 5.36 ± 0.059

KMFLRTREPALDGGFQMHYEKTPF [EID1]
protein stability index [1]: 2.83 ± 0.25
protein stability index [2]: 3.05 ± 0.4

LEEYITDEQKEEEEEEGEEEELIR [FAM9B]
protein stability index [1]: 5.37 ± 0.15
protein stability index [2]: 5.59 ± 0.33

VLGINRAYGKNSLSKNLIKMLSKA [AUH]
protein stability index [2]: 2.244 ± 0.021

PYVSDGNFSNYYVAHPPVTYSQPY [TENT5C]
protein stability index [1]: 2.55 ± 0.39
protein stability index [2]: 2.62 ± 0.38

NETGYLSSVECYNLETNEWRYVSS [KLHL14]
protein stability index [1]: 2.61 ± 0.32
protein stability index [2]: 2.91 ± 0.57

LRRWLRANLAASGGYAIAVVLLQG [TSPAN10]
protein stability index [1]: 2.43 ± 0.68
protein stability index [2]: 2.35 ± 0.075

QDLKYISPEIMASVLNGKFANLIK [CDC25A]
protein stability index [1]: 2.21 ± 0.22
protein stability index [2]: 2.24 ± 0.17

FSLRVHTGCHKKLGPEARRPRTRW
protein stability index [1]: 2.66 ± 0.28
protein stability index [2]: 3.06 ± 0.094

RLHHPHKSVQHVVLQALFYLLDRA [PTPN9]
protein stability index [1]: 2.28 ± 0.21
protein stability index [2]: 2.13 ± 0.36

TYEPFCKVPVITSSKEEQKLIATS [KCTD10]
protein stability index [1]: 4.27 ± 0.2
protein stability index [2]: 4.16 ± 0.37

NDINILRVSNPGRLAELLLLETDA [GADD45A]
protein stability index [1]: 2.31 ± 0.19
protein stability index [2]: 2.5 ± 0.5

KQQRNEVSFVIHNLPIIAKMAAVS [SEPHS2]
protein stability index [1]: 2.51 ± 0.61
protein stability index [2]: 2.35 ± 0.36

RWWEDLERDFPCPVCRKTSRYRSL [TRIM39]
protein stability index [1]: 2.36 ± 0.21
protein stability index [2]: 2.77 ± 0.56

AFRALASAQCPQFGIPRKRLKQS [SPOPL]
protein stability index [3]: 2.74 ± 0.19
protein stability index [4]: 2.83 ± 0.16

LGSDYEQPLEVKNNSNLQRMGSSE [CDC25A]
protein stability index [1]: 5.01 ± 0.19
protein stability index [2]: 4.94 ± 0.57

KRPAWGSRRFEAVGWWALLALVTL [POMT2]
protein stability index [1]: 2.64 ± 0.71
protein stability index [2]: 2.29 ± 0.24

GETDEVTKTEDRELVLRKDCPKIV [ZSCAN9]
protein stability index [1]: 5.48 ± 0.14
protein stability index [2]: 5.44 ± 0.24

NYYEVGSNRGAYVKLGPALTPHIV [PPEF2]
protein stability index [1]: 2.19 ± 0.2
protein stability index [2]: 2.55 ± 0.32

VPSSGYGAVTASKHSNSPPLVTPP [SMTNL2]
protein stability index [1]: 4.29 ± 0.14
protein stability index [2]: 4.16 ± 0.15

SCLLPSSEAKLYGRCELARVLHDF [SPACA3]
protein stability index [1]: 2.08 ± 0.57
protein stability index [2]: 2.1 ± 0.26

EGYTPLMEAAREGHEEMVALLLGQ [ANKRD17]
protein stability index [1]: 4.07 ± 0.32
protein stability index [2]: 4.07 ± 0.22

SIGRRRTELRRSGSSRSPGSKARA [PLEKHN1]
protein stability index [1]: 4.88 ± 0.47
protein stability index [2]: 4.95 ± 0.27

RMGSSESTDSGFCLDSPGPLDSKE [CDC25A]
protein stability index [1]: 5.45 ± 0.14
protein stability index [2]: 5.47 ± 0.44

QFVSSVPRCDLVDLGEGKICFCCE [FAM189A2]
protein stability index [1]: 2.67 ± 0.37
protein stability index [2]: 2.98 ± 0.6

SDCEEEEEEEEEEGSGHSTGEDSA [WEE1]
protein stability index [1]: 5.57 ± 0.2
protein stability index [2]: 5.49 ± 0.33

GLDFLHANCIVHRDLKPENILVTS [CDK4]
protein stability index [1]: 2.49 ± 0.23
protein stability index [2]: 2.61 ± 0.4

LSQAPAEGPDLVPAALGSLTTAQI [HES6]
protein stability index [1]: 4.35 ± 0.32
protein stability index [2]: 4.36 ± 0.61

MATFPCQLCGKTFLTLEKFTIHNY [PLAGL1]
protein stability index [1]: 2.47 ± 0.23
protein stability index [2]: 2.4 ± 0.28

EMEEELRYAPLSFRNPMMSKLRNY [VTI1B]
protein stability index [1]: 2.78 ± 0.28
protein stability index [2]: 3.01 ± 0.25

PQAPDPEEEENRDSQQPGKRRKDS [FANCE]
protein stability index [1]: 5.74 ± 0.21
protein stability index [2]: 5.62 ± 0.3

LENVLDPDSFYELKSQPLPLRSSL [TFE3]
protein stability index [1]: 3.4 ± 0.27
protein stability index [2]: 3.49 ± 0.21

FFMTATQYFTNRLDMSQNVSLVTA [SLC29A1]
protein stability index [1]: 3.04 ± 0.4
protein stability index [2]: 2.92 ± 0.47

YTFIIVPKMLVDLLSQKKTISFLG [OR10K2]
protein stability index [1]: 3.09 ± 0.14
protein stability index [2]: 2.7 ± 0.28

RNRPSFDAILYYYQSGGRIRRPVN [KCNA3]
protein stability index [1]: 2.3 ± 0.22
protein stability index [2]: 2.58 ± 0.31

DYFISYGIEHAQCVPPSEFSEPSF [ETS1]
protein stability index [1]: 2.49 ± 0.26
protein stability index [2]: 2.67 ± 0.18

PKPLTRKPILLQRMEGSQEVVNMA [WDFY2]
protein stability index [1]: 3.66 ± 0.049
protein stability index [2]: 3.65 ± 0.41

RSPYAGLQLGAAKKPPVTFAEKGE [TRIM29]
protein stability index [1]: 4.09 ± 0.22
protein stability index [2]: 4.26 ± 0.2

DPGLGEGPALWLRSTCVYVCALSA [PLEKHN1]
protein stability index [1]: 2.55 ± 0.045
protein stability index [2]: 2.09 ± 0.38

ASSGLTVEVDAPKSQDLAKIMADI [KRT18]
protein stability index [1]: 4.45 ± 0.3
protein stability index [2]: 4.57 ± 0.057

TEYQKQLLAAQVQLQCSPAELQAE [FBF1]
protein stability index [1]: 4.39 ± 0.31
protein stability index [2]: 4.3 ± 0.2

AKNYIWALSEILRIGKRPDLLTFV [NEUROD6]
protein stability index [1]: 2.53 ± 0.52
protein stability index [2]: 2.69 ± 0.92

EGASSDNGCEVKNRKSILSRHLNS [PHTF1]
protein stability index [1]: 4.74 ± 0.46
protein stability index [2]: 4.68 ± 0.16

APAMYDDESAIDFSAYIDSMAAVP [CEBPD]
protein stability index [1]: 4.32 ± 0.27
protein stability index [2]: 3.62 ± 0.15

PELTAALRDIRAQYESIAAKNLQE [PRPH]
protein stability index [1]: 3.52 ± 0.65
protein stability index [2]: 3.8 ± 0.48

GEGTFGKVVECLDHARGKSQVALK [CLK3]
protein stability index [1]: 4.45 ± 0.33
protein stability index [2]: 4.66 ± 0.082

FCIDSENRIGNSGVEEIKGHPFFE [STK38L]
protein stability index [1]: 2.97 ± 0.58
protein stability index [2]: 3.03 ± 0.18

HQRSSSESYTQSFQSRKPFFSWW [PI4K2A]
protein stability index [3]: 3.41 ± 0.27
protein stability index [4]: 3.7 ± 0.3

IKEQLIQEGLLDRCVSFQARFAEK [HDAC6]
protein stability index [1]: 2.81 ± 0.19
protein stability index [2]: 2.73 ± 0.36

EEEISETGELVGPFVSAMPTPMPH [ZBED2]
protein stability index [1]: 5.1 ± 0.2
protein stability index [2]: 5.17 ± 0.15

ELAEHRCHPVERGIKSKEAEEYRL [PSD2]
protein stability index [1]: 4.89 ± 0.25
protein stability index [2]: 4.64 ± 0.36

KYLVEHKADLEVSNRHGHTCLMIS [FEM1C]
protein stability index [1]: 2.53 ± 0.12
protein stability index [2]: 2.67 ± 0.23

SLSFEDFLDLLSVFSDTATPDIKS [CIB1]
protein stability index [1]: 2.26 ± 0.35
protein stability index [2]: 2.29 ± 0.33

YKPPALKKSNSPGTASSGSSRLPQ [ZC2HC1A]
protein stability index [1]: 4.46 ± 0.079
protein stability index [2]: 4.51 ± 0.2

RYALQLQQIQGLISSIEAQLSELR [KRT13]
protein stability index [1]: 3.17 ± 0.14
protein stability index [2]: 3.38 ± 0.35

DDATLSRLELERKIESLMDEIEFL [PRPH]
protein stability index [1]: 4 ± 0.23
protein stability index [2]: 3.88 ± 0.28

KPGNNEGSGAPSPLSKSSPATTVT [SNAP91]
protein stability index [1]: 5.21 ± 0.11
protein stability index [2]: 5.1 ± 0.13

NEEIRAVGRLKRERSMSENAVRQN [MFF]
protein stability index [1]: 5.15 ± 0.2
protein stability index [2]: 4.87 ± 0.27

LEPGSADPLANGCQGVSEAAHRLA [PSD2]
protein stability index [1]: 5.22 ± 0.075
protein stability index [2]: 5.23 ± 0.24

AAASGAAGGGGGGAGAGAPGGGRL [INTS3]
protein stability index [1]: 4.98 ± 0.2
protein stability index [2]: 4.91 ± 0.26

QDEEMLELPAPAEVAAKNQSLEGD [MLH1]
protein stability index [1]: 5.37 ± 0.59
protein stability index [2]: 5.66 ± 0.17

RVQPVKDTAHDFRAKCRNMEHALR [TRIM35]
protein stability index [1]: 2.96 ± 0.44
protein stability index [2]: 3.25 ± 0.36

KPLDLSDSTLSYTETEATNSLITA [SMAD6]
protein stability index [1]: 4.82 ± 0.2
protein stability index [2]: 4.92 ± 0.059

APLQADLTEQVWKVQDALQNQSDS [SCARA5]
protein stability index [1]: 5.26 ± 0.24
protein stability index [2]: 5.24 ± 0.28

LYPSLNVTSFDSVVPEKLDDLVPK [ALG2]
protein stability index [1]: 4.32 ± 0.14
protein stability index [2]: 4.42 ± 0.11

FVMFLCLADYLVPILAPRIFGSNK [ARL6IP1]
protein stability index [1]: 3.21 ± 0.48
protein stability index [2]: 3.17 ± 0.62

AGQRGEPGPKGDPGEKSHWGEGLH [EMID1]
protein stability index [1]: 4.34 ± 0.36

FFFLRMDENYNLLPHGVNFQDAIF [CCDC3]
protein stability index [1]: 2.79 ± 0.43
protein stability index [2]: 2.97 ± 0.76

RGLHEDLQGVPERLLGTAGTEEKK [VTI1B]
protein stability index [1]: 5.38 ± 0.07
protein stability index [2]: 5.58 ± 0.26

EPPKPTFPAYTQSTASTTSTTNST [ZNF207]
protein stability index [1]: 5.39 ± 0.3
protein stability index [2]: 5.04 ± 0.21

HMSLEKDIAAMTNSLFIDRQKCMA [TEKT4]
protein stability index [1]: 3 ± 0.18
protein stability index [2]: 3.02 ± 0.23

LDVTVQSFGWSDRAKVKTDDIARI [FAM98B]
protein stability index [1]: 2.98 ± 0.28
protein stability index [2]: 2.89 ± 0.36

YLLHPAAFHGAPSHLPTRSPSFPE [TBX6]
protein stability index [1]: 2.49 ± 0.28
protein stability index [2]: 2.87 ± 0.26

SKPCDLHCTTVDGQRQLMVPARDG [ADAMTSL2]
protein stability index [1]: 4.33 ± 0.11
protein stability index [2]: 4.37 ± 0.36

NLWYSFQDEEDMFMVVDLLLGGDL [STK32A]
protein stability index [1]: 2.41 ± 0.69
protein stability index [2]: 2.2 ± 0.39

DENYNLLPHGVNFQDAIFPDTQEN [CCDC3]
protein stability index [1]: 4.92 ± 0.29
protein stability index [2]: 5.06 ± 0.21

PAQRSHTYTHGLGLHRRPGAGHCS
protein stability index [1]: 3.52 ± 0.12
protein stability index [2]: 3.46 ± 0.3

SFIITLGCNSVLIQFATPNDFCSF [CARM1]
protein stability index [1]: 3.3 ± 0.25
protein stability index [2]: 2.75 ± 0.45

YEIPHFRLKKVENIKIWLSLRSYL [PHTF1]
protein stability index [1]: 2.8 ± 1
protein stability index [2]: 2.92 ± 0.9

RTIAETEAAYLKILESSQTLLSVL [SSNA1]
protein stability index [1]: 2.33 ± 0.29
protein stability index [2]: 2.72 ± 0.27

PDLRQDFNMMEQKKRVSMILQSPA [ADD1]
protein stability index [1]: 3.7 ± 0.32
protein stability index [2]: 3.78 ± 0.23

GRLGRWLRSTRFSGSLDRLRETRV [PCDHGC5]
protein stability index [1]: 3.34 ± 0.18
protein stability index [2]: 3.3 ± 0.36

ADGQESTPPTPAPTSGIVGALMEV [WASL]
protein stability index [1]: 4.86 ± 0.1
protein stability index [2]: 4.56 ± 0.17

IQNSDNDLPVVQGSSSFSLKGYPS [TRIM29]
protein stability index [1]: 3.91 ± 0.29
protein stability index [2]: 4.07 ± 0.2

MAAADAEAVPARGEPQQDCCVKTE [EHMT1]
protein stability index [1]: 5.63 ± 0.21
protein stability index [2]: 5.53 ± 0.11

AKKLPPVQESQSERLQAAGTDSAG [ELOA2]
protein stability index [1]: 5.2 ± 0.18
protein stability index [2]: 5.09 ± 0.24
